Data reported in patent US20060257938A1, “Method of screening for drugs that block ligand binding to a lipid binding protein” (priority 2005, published 2006).
Values joined by “and” are separate entries in the source; they are usually repeats but may differ in a detail not shown here. Equal values may be shown once.

Tests used:
Type in all cases: binding
Conditions in all cases: response relative to ADIFAB2
[1] = Probe fluorescence ratio response to linolenic acid relative to ADIFAB2
Source text: (§1) In an alternate preferred embodiment, the protein is rI-FABP that has Ala substituted for Leu at position 72 (rI-FABP-L72A) with the resulting probe named ADIFAB2. […] Other probes useful in embodiments of the invention are shown in Tables 1-6 and are also described in U.S. application Ser. No. 11/085,792, filed Mar. 21, 2005 which is incorporated herein by reference. The indicated substitutions are with reference to the ADIFAB protein of SEQ ID NO: 2.
(§2) ADIFAB2 also has an altered spectral response, making it especially useful for measurements of FFAu in blood samples (Apple et al, Clinical Proteomics, (2004) 1:41-44, U.S. patent application Ser. No. 10/670,958). The wavelengths at the maximum intensities emitted by these fluorescently-labeled I-FABP's in the absence of FFA is about 420 to 480 nm. The emission wavelengths at the maximum intensities emitted by these fluorescently-labeled I-FABP's with FFA bound are between about 495 to 580 nm. Experiments typically involve measuring the fluorescence response within both emission maxima or at wavelengths for which the effect of interfering molecules such as hemoglobin can be eliminated as described in U.S. application Ser. No. 10/670958 and PCT/US2004/030521 and the calculation of the ratio ‘R’ of the two fluorescence intensities. The baseline value for this ratio, measured in the absence of analyte, is designated R0.
(§3) The intensity ratio (“R” value) is determined as follows. The ratio is calculated using the following formula: R=Fλ1/Fλ2 wherein, Fλ1 is the measured fluorescence intensities (intensity of sample with probe present minus intensity of sample without probe present) at wavelength 1 and Fλ2 is the measured fluorescence intensities (intensity of sample with probe present minus intensity of sample without probe present) at wavelength 2. Then, for a given probe, ΔR, the difference in R value between the measurement in the presence of the test compound (agent) and in the absence of the test compound (agent), is calculated as follows: ΔR=R+agent−R0 In some embodiments, the ΔR value may then be compared to some reference, for example, an agent with a known affinity for a given probe, by ΔR/ΔRreference. Measurements of fluorescence intensities are obtained using standard techniques.

[2] = Probe fluorescence ratio response to linoleic acid relative to ADIFAB2
Source text: as §1, §2, §3

[3] = Probe fluorescence ratio response to arachidonic acid relative to ADIFAB2
Source text: as §1, §2, §3

[4] = Probe fluorescence ratio response to oleic acid relative to ADIFAB2
Source text: as §1, §2, §3

[5] = Probe fluorescence ratio response to palmitic acid relative to ADIFAB2
Source text: as §1, §2, §3

Molecule | DR/DR LNA [1] | DR/DR LA [2] | DR/DR AA ([3]; arachidonic acid) | DR/DR OA [4] | DR/DR PA [5] | DR/DR AA ([3]; Arachidonic acid)
117E, 72A (protein, listed as Rattus norvegicus, PEPTIDE (1)...(131) wild-type rat intestinal fatty acid binding protein) AFDGTWKVDRNENYEKFMEKMGINVVKRKLGAHDNLKLTITQEGNKFTVKESSNFRNIDVVFELGVDFAYSAADGTELTGTWTMEGNKLVGKFKRVDNGKELIAVREISGNELIQTETYEGVEAKRIFKKE | 0.64 and 0.638 | 0.76 and 0.753 | 0.65 and 0.656 | 0.65 and 0.659 | 0.40 and 0.402 | 
117F, 72A (protein, listed as Rattus norvegicus, PEPTIDE (1)...(131) wild-type rat intestinal fatty acid binding protein) AFDGTWKVDRNENYEKFMEKMGINVVKRKLGAHDNLKLTITQEGNKFTVKESSNFRNIDVVFELGVDFAYSAADGTELTGTWTMEGNKLVGKFKRVDNGKELIAVREISGNELIQTFTYEGVEAKRIFKKE | 1.38 | 1.36 | 1.33 | 1.37 | 1.20 | 
117G, 72A (protein, listed as Rattus norvegicus, PEPTIDE (1)...(131) wild-type rat intestinal fatty acid binding protein) AFDGTWKVDRNENYEKFMEKMGINVVKRKLGAHDNLKLTITQEGNKFTVKESSNFRNIDVVFELGVDFAYSAADGTELTGTWTMEGNKLVGKFKRVDNGKELIAVREISGNELIQTGTYEGVEAKRIFKKE | 0.85 | 0.92 | 0.88 | 0.84 | 0.39 | 
117H, 72A (protein, listed as Rattus norvegicus, PEPTIDE (1)...(131) wild-type rat intestinal fatty acid binding protein) AFDGTWKVDRNENYEKFMEKMGINVVKRKLGAHDNLKLTITQEGNKFTVKESSNFRNIDVVFELGVDFAYSAADGTELTGTWTMEGNKLVGKFKRVDNGKELIAVREISGNELIQTHTYEGVEAKRIFKKE | 0.94 and 0.924 | 1.06 and 1.056 | 0.90 and 0.913 | 1.01 and 1.012 | 0.63 and 0.659 | 
117I, 72A (protein, listed as Rattus norvegicus, PEPTIDE (1)...(131) wild-type rat intestinal fatty acid binding protein) AFDGTWKVDRNENYEKFMEKMGINVVKRKLGAHDNLKLTITQEGNKFTVKESSNFRNIDVVFELGVDFAYSAADGTELTGTWTMEGNKLVGKFKRVDNGKELIAVREISGNELIQTITYEGVEAKRIFKKE | 0.68 and 0.666 | 0.80 and 0.789 | 0.68 and 0.674 | 0.67 and 0.676 | 0.41 and 0.408 | 
117K, 72A (protein, listed as Rattus norvegicus, PEPTIDE (1)...(131) wild-type rat intestinal fatty acid binding protein) AFDGTWKVDRNENYEKFMEKMGINVVKRKLGAHDNLKLTITQEGNKFTVKESSNFRNIDVVFELGVDFAYSAADGTELTGTWTMEGNKLVGKFKRVDNGKELIAVREISGNELIQTKTYEGVEAKRIFKKE | 0.37 | 0.43 | 0.34 | 0.04 | 0.22 | 
117L, 72A (protein, listed as Rattus norvegicus, PEPTIDE (1)...(131) wild-type rat intestinal fatty acid binding protein) AFDGTWKVDRNENYEKFMEKMGINVVKRKLGAHDNLKLTITQEGNKFTVKESSNFRNIDVVFELGVDFAYSAADGTELTGTWTMEGNKLVGKFKRVDNGKELIAVREISGNELIQTLTYEGVEAKRIFKKE | 0.39 | 0.43 | 0.38 | 0.35 | 0.29 | 
117M, 72A (protein, listed as Rattus norvegicus, PEPTIDE (1)...(131) wild-type rat intestinal fatty acid binding protein) AFDGTWKVDRNENYEKFMEKMGINVVKRKLGAHDNLKLTITQEGNKFTVKESSNFRNIDVVFELGVDFAYSAADGTELTGTWTMEGNKLVGKFKRVDNGKELIAVREISGNELIQTMTYEGVEAKRIFKKE | 1.36 | 1.31 | 1.27 | 1.32 | 1.14 | 
117N, 72A (protein, listed as Rattus norvegicus, PEPTIDE (1)...(131) wild-type rat intestinal fatty acid binding protein) AFDGTWKVDRNENYEKFMEKMGINVVKRKLGAHDNLKLTITQEGNKFTVKESSNFRNIDVVFELGVDFAYSAADGTELTGTWTMEGNKLVGKFKRVDNGKELIAVREISGNELIQTNTYEGVEAKRIFKKE | 1.37 | 1.35 | 1.33 | 1.40 | 1.19 | 
117P, 72A (protein, listed as Rattus norvegicus, PEPTIDE (1)...(131) wild-type rat intestinal fatty acid binding protein) AFDGTWKVDRNENYEKFMEKMGINVVKRKLGAHDNLKLTITQEGNKFTVKESSNFRNIDVVFELGVDFAYSAADGTELTGTWTMEGNKLVGKFKRVDNGKELIAVREISGNELIQTPTYEGVEAKRIFKKE | 0.83 | 0.86 | 0.80 | 0.73 | 0.38 | 
102D, 72A (protein, listed as Rattus norvegicus, PEPTIDE (1)...(131) wild-type rat intestinal fatty acid binding protein) AFDGTWKVDRNENYEKFMEKMGINVVKRKLGAHDNLKLTITQEGNKFTVKESSNFRNIDVVFELGVDFAYSAADGTELTGTWTMEGNKLVGKFKRVDNGKEDIAVREISGNELIQTYTYEGVEAKRIFKKE | 0.61 | 0.63 | 0.52 | 0.59 | 0.28 | 
117Q, 72A (protein, listed as Rattus norvegicus, PEPTIDE (1)...(131) wild-type rat intestinal fatty acid binding protein) AFDGTWKVDRNENYEKFMEKMGINVVKRKLGAHDNLKLTITQEGNKFTVKESSNFRNIDVVFELGVDFAYSAADGTELTGTWTMEGNKLVGKFKRVDNGKELIAVREISGNELIQTQTYEGVEAKRIFKKE | 1.24 and 1.236 | 1.37 and 1.374 | 1.21 and 1.214 | 1.13 and 1.134 | 0.63 and 0.631 | 
117R, 72A (protein, listed as Rattus norvegicus, PEPTIDE (1)...(131) wild-type rat intestinal fatty acid binding protein) AFDGTWKVDRNENYEKFMEKMGINVVKRKLGAHDNLKLTITQEGNKFTVKESSNFRNIDVVFELGVDFAYSAADGTELTGTWTMEGNKLVGKFKRVDNGKELIAVREISGNELIQTRTYEGVEAKRIFKKE | 0.70 | 0.70 | 0.64 | 0.61 | 0.31 | 
74F, 72A (protein, listed as Rattus norvegicus, PEPTIDE (1)...(131) wild-type rat intestinal fatty acid binding protein) AFDGTWKVDRNENYEKFMEKMGINVVKRKLGAHDNLKLTITQEGNKFTVKESSNFRNIDVVFELGVDFAYSAAFGTELTGTWTMEGNKLVGKFKRVDNGKELIAVREISGNELIQTYTYEGVEAKRIFKKE | 1.36 and 1.04 | 1.19 and 0.67 | 0.44 |  | 1.23 and 0.93 | 1.02
